Data as given in patent US20220204638A1, “Combination Therapies Comprising Daratumumab, Bortezomib, Thalidomide and Dexamethasone and Their Uses” (Janssen Biotech, Inc., priority 2019, published 2022).

Legend:
[1] = Clinical pharmacokinetic drug-drug interaction assessments; conditions: human, in vivo
[2] = system: NK cells; experiment: Pharmacodynamics, NK cell counts; type: in vivo, human; conditions: peripheral whole blood and bone marrow
Excerpt: NK cells express CD38 and are susceptible to daratumumab mediated cell lysis.

[3] = Clinical pharmacokinetics of daratumumab; type: in vivo, human
Excerpt: Daratumumab volume of distribution was 4.7±1.3 L as monotherapy and 4.4±1.5 L as combination therapy following administration of the approved dosage.
Daratumumab clearance decreased with increasing dose and with multiple dosing.
The effect of severe (total bilirubin>3 times ULN and any AST) hepatic impairment on daratumumab pharmacokinetics is unknown.

[4] = system: relapsed or refractory multiple myeloma; experiment: GEN501 (NCT00574288) open-label dose escalation monotherapy trial; type: in vivo, human
Excerpt: (§1) Treatment continued until unacceptable toxicity or disease progression.
Seventy-four percent of patients had received prior ASCT. Prior therapies included bortezomib (100%), lenalidomide (95%), pomalidomide (36%) and carfilzomib (19%).

[5] = molecular target: T1, CD38 on red blood cells (Homo sapiens, UniProt P28907); experiment: Interference with Indirect Antiglobulin Test (Indirect Coombs test)
T1 construct: endogenous in cells; host or cells: red blood cells (reagent RBCs used in serological testing)
Excerpt: Daratumumab binds to CD38 on red blood cells (RBCs) and results in a positive Indirect Antiglobulin Test (Indirect Coombs test). Daratumumab-mediated positive indirect antiglobulin test may persist for up to 6 months after the last daratumumab infusion. Daratumumab bound to RBCs masks detection of antibodies to minor antigens in the patient's serum [see References (15)]. The determination of a patient's ABO and Rh blood type are not impacted [see Drug Interactions (7.1)].
Daratumumab binds to CD38 on RBCs and interferes with compatibility testing, including antibody screening and cross matching. Daratumumab interference mitigation methods include treating reagent RBCs with dithiothreitol (DTT) to disrupt daratumumab binding [see References (15)] or genotyping. Since the Kell blood group system is also sensitive to DTT treatment, K-negative units should be supplied after ruling out or identifying alloantibodies using DTT-treated RBCs.

[6] = Storage of diluted DARZALEX solution; type: physicochemical
Excerpt: Prepare the solution for infusion using aseptic technique as follows: • Calculate the dose (mg), total volume (mL) of DARZALEX solution required and the number of DARZALEX vials needed based on patient actual body weight. • Check that the DARZALEX solution is colorless to pale yellow. […] Infusion bags/containers must be made of either polyvinylchloride (PVC), polypropylene (PP), polyethylene (PE) or polyolefin blend (PP+PE). Dilute under appropriate aseptic conditions. Discard any unused portion left in the vial. • Gently invert the bag/container to mix the solution. […] The diluted solution may develop very small, translucent to white proteinaceous particles, as daratumumab is a protein. […] (59° F.-77° F.) and in room light. Diluted solution may be kept at room temperature for a maximum of 15 hours (including infusion time). • If not used immediately, the diluted solution can be stored prior to administration for up to 24 hours at refrigerated conditions 2° C.-8° C. (36° F.-46° F.) and protected from light.

[7] = system: relapsed or refractory multiple myeloma; experiment: SIRIUS (NCT01985126) open-label DARZALEX monotherapy trial; type: in vivo, human
Excerpt: as §1
The median patient age was 63.5 years (range: 31 to 84 years), 49% were male and 79% were Caucasian. Patients had received a median of 5 prior lines of therapy. […] Prior therapies included bortezomib (99%), lenalidomide (99%), pomalidomide (63%) and carfilzomib (50%).

[8] = system: relapsed and refractory multiple myeloma; experiment: DARZALEX monotherapy safety, three open-label clinical trials (N=156); type: in vivo, human
Excerpt: Serious adverse reactions were reported in 51 (33%) patients.
Table 23 describes Grade 3-4 laboratory abnormalities reported at a rate of ≥10%.

[9] = Immunogenicity, anti-daratumumab antibodies in clinical trials; type: in vivo, human
Excerpt: As with all therapeutic proteins, there is the potential for immunogenicity. The detection of antibody formation is highly dependent on the sensitivity and specificity of the assay. Additionally, the observed incidence of antibody (including neutralizing antibody) positivity in an assay may be influenced by several factors including assay methodology, sample handling, timing of sample collection, concomitant medications, and underlying disease. For these reasons, comparison of the incidence of antibodies to daratumumab in the studies described below with the incidence of antibodies in other studies or to other products may be misleading. […] One patient administered DARZALEX as combination therapy, developed transient neutralizing antibodies against daratumumab. However, this assay has limitations in detecting anti-daratumumab antibodies in the presence of high concentrations of daratumumab; therefore, the incidence of antibody development might not have been reliably determined.

[10] = system: multiple myeloma; experiment: Clinical trials pooled, monotherapy and combination treatments (N=2,066); type: in vivo, human
[11] = system: multiple myeloma, prior PI and immunomodulatory agent; experiment: EQUULEUS (NCT01998971) open-label trial, DARZALEX with pomalidomide and dexamethasone
Method: In [sequence], patients receiving daratumumab combination treatment (n=97) were administered the first 16 mg/kg daratumumab dose at Week 1 split over two days i.e. 8 mg/kg on Day 1 and Day 2 respectively.
Pomalidomide (4 mg once daily orally on Days 1-21 of repeated 28-day [4-week] cycles) was given with low dose oral or intravenous dexamethasone 40 mg/week (reduced dose of 20 mg/week for patients>75 years or BMI<18.5).
The median patient age was 64 years (range: 35 to 86 years) with 8% of patients≥75 years of age. Patients in the study had received a median of 4 prior lines of therapy. Seventy-four percent (74%) of patients had received prior ASCT. Ninety-eight percent (98%) of patients received prior bortezomib treatment, and 33% of patients received prior carfilzomib. All patients received prior lenalidomide treatment, with 98% of patients previously treated with the combination of bortezomib and lenalidomide. Eighty nine percent (89%) of patients were refractory to lenalidomide and 71% refractory to bortezomib; 64% of patients were refractory to bortezomib and lenalidomide.

DARZALEX: IgG1κ human monoclonal antibody against CD38, HC SEQ ID NO: 9 and LC SEQ ID NO: 10
drug-drug interactions with lenalidomide, pomalidomide, bortezomib and dexamethasone [1]: no clinically relevant drug-drug interactions
absolute counts and percentages of total and activated NK cells [2]: Decreases
mean serum Cmax at end of weekly dosing compared to first dose ([3]; approved recommended dosage, monotherapy or combination): 2.7 to 3 fold
Terminal half-life ([3]; combination therapy vs monotherapy): similar
trough serum concentration (Cmin) at end of weekly dosing, mean±SD ([3]; monotherapy): 573 ± 332 µg/mL
linear clearance, mean±SD ([3]; monotherapy, estimated): 171.4 ± 95.3 mL/day
terminal half-life associated with linear clearance, mean±SD ([3]; monotherapy, estimated): 18 ± 9 days
pharmacokinetics in specific populations ([3]; sex, age, mild and moderate hepatic impairment, renal impairment): No clinically significant differences
Overall response rate ([4]; 16 mg/kg, 42 patients): 36%
number of CR ([4]; 16 mg/kg, 42 patients): 1
number of VGPR ([4]; 16 mg/kg, 42 patients): 3
median duration of response ([4]; in vivo): not estimable
median time to response ([4]; in vivo): 1 month
persistence of positive indirect antiglobulin test after the last infusion [5]: up to 6 months
time diluted solution can be stored refrigerated ([6]; 2-8 °C, protected from light): up to 24 hours
time diluted solution may be kept at room temperature ([6]; 15-25 °C, including infusion time): ≤ 15 h
Overall response rate (ORR) ([7]; Independent Review Committee, IMWG criteria): 31 (29.2%)
Complete response (CR) ([7]; in vivo): 0
Partial response (PR) ([7]; in vivo): 18 (17.0%)
Stringent complete response (sCR) ([7]; in vivo): 3 (2.8%)
Very good partial response (VGPR) ([7]; in vivo): 10 (9.4%)
median duration of response ([7]; in vivo): 7.4 months
median time to response ([7]; in vivo): 1 month
Serious adverse reactions ([8]; 16 mg/kg monotherapy): 33%
Arthralgia, Any Grade ([8]; human, in vivo): 17%
Arthralgia, Grade 3 ([8]; human, in vivo): 0%
Arthralgia, Grade 4 ([8]; human, in vivo): 0%
Back pain, Any Grade ([8]; human, in vivo): 23%
Back pain, Grade 3 ([8]; human, in vivo): 2%
Back pain, Grade 4 ([8]; human, in vivo): 0%
Chills, Any Grade ([8]; human, in vivo): 10%
Chills, Grade 3 ([8]; human, in vivo): 0%
Chills, Grade 4 ([8]; human, in vivo): 0%
Constipation, Any Grade ([8]; human, in vivo): 15%
Constipation, Grade 3 ([8]; human, in vivo): 0%
Constipation, Grade 4 ([8]; human, in vivo): 0%
Cough, Any Grade ([8]; human, in vivo): 21%
Cough, Grade 3 ([8]; human, in vivo): 0%
Cough, Grade 4 ([8]; human, in vivo): 0%
Decreased appetite, Any Grade ([8]; human, in vivo): 15%
Decreased appetite, Grade 3 ([8]; human, in vivo): 1%
Decreased appetite, Grade 4 ([8]; human, in vivo): 0%
Diarrhea, Any Grade ([8]; human, in vivo): 16%
Diarrhea, Grade 3 ([8]; human, in vivo): 1%
Diarrhea, Grade 4 ([8]; human, in vivo): 0%
Dyspnea, Any Grade ([8]; human, in vivo): 15%
Dyspnea, Grade 3 ([8]; human, in vivo): 1%
Dyspnea, Grade 4 ([8]; human, in vivo): 0%
Fatigue, Any Grade ([8]; human, in vivo): 39%
Fatigue, Grade 3 ([8]; human, in vivo): 2%
Fatigue, Grade 4 ([8]; human, in vivo): 0%
Headache, Any Grade ([8]; human, in vivo): 12%
Headache, Grade 3 ([8]; human, in vivo): 1%
Headache, Grade 4 ([8]; human, in vivo): 0%
Hypertension, Any Grade ([8]; human, in vivo): 10%
Hypertension, Grade 3 ([8]; human, in vivo): 5%
Hypertension, Grade 4 ([8]; human, in vivo): 0%
Infusion reaction, Any Grade ([8]; human, in vivo): 48%
Infusion reaction, Grade 3 ([8]; human, in vivo): 3%
Infusion reaction, Grade 4 ([8]; human, in vivo): 0%
Musculoskeletal chest pain, Any Grade ([8]; human, in vivo): 12%
Musculoskeletal chest pain, Grade 3 ([8]; human, in vivo): 1%
Musculoskeletal chest pain, Grade 4 ([8]; human, in vivo): 0%
Nasal congestion, Any Grade ([8]; human, in vivo): 17%
Nasal congestion, Grade 3 ([8]; human, in vivo): 0%
Nasal congestion, Grade 4 ([8]; human, in vivo): 0%
Nasopharyngitis, Any Grade ([8]; human, in vivo): 15%
Nasopharyngitis, Grade 3 ([8]; human, in vivo): 0%
Nasopharyngitis, Grade 4 ([8]; human, in vivo): 0%
Nausea, Any Grade ([8]; human, in vivo): 27%
Nausea, Grade 3 ([8]; human, in vivo): 0%
Nausea, Grade 4 ([8]; human, in vivo): 0%
Pain in extremity, Any Grade ([8]; human, in vivo): 15%
Pain in extremity, Grade 3 ([8]; human, in vivo): 1%
Pain in extremity, Grade 4 ([8]; human, in vivo): 0%
Pneumonia, Any Grade ([8]; human, in vivo): 11%
Pneumonia, Grade 3 ([8]; human, in vivo): 6%
Pneumonia, Grade 4 ([8]; human, in vivo): 0%
Pyrexia, Any Grade ([8]; human, in vivo): 21%
Pyrexia, Grade 3 ([8]; human, in vivo): 1%
Pyrexia, Grade 4 ([8]; human, in vivo): 0%
Serious adverse reaction, general physical health deterioration ([8]; human, in vivo): 3%
Serious adverse reaction, pneumonia ([8]; human, in vivo): 6%
Serious adverse reaction, pyrexia ([8]; human, in vivo): 3%
Upper respiratory tract infection, Any Grade ([8]; human, in vivo): 20%
Upper respiratory tract infection, Grade 3 ([8]; human, in vivo): 1%
Upper respiratory tract infection, Grade 4 ([8]; human, in vivo): 0%
Vomiting, Any Grade ([8]; human, in vivo): 14%
Vomiting, Grade 3 ([8]; human, in vivo): 0%
Vomiting, Grade 4 ([8]; human, in vivo): 0%
discontinuations due to adverse reactions ([8]; human, in vivo): 4%
treatment delay due to adverse reactions ([8]; human, in vivo): 15%
Anemia, Any Grade ([8]; lab abnormality): 45%
Anemia, Grade 3 ([8]; lab abnormality): 19%
Anemia, Grade 4 ([8]; lab abnormality): 0%
Lymphopenia, Any Grade ([8]; lab abnormality): 72%
Lymphopenia, Grade 3 ([8]; lab abnormality): 30%
Lymphopenia, Grade 4 ([8]; lab abnormality): 10%
Neutropenia, Any Grade ([8]; lab abnormality): 60%
Neutropenia, Grade 3 ([8]; lab abnormality): 17%
Neutropenia, Grade 4 ([8]; lab abnormality): 3%
Thrombocytopenia, Any Grade ([8]; lab abnormality): 48%
Thrombocytopenia, Grade 3 ([8]; lab abnormality): 10%
Thrombocytopenia, Grade 4 ([8]; lab abnormality): 8%
transient neutralizing antibodies against daratumumab ([9]; combination therapy): One patient
patients positive for anti-daratumumab antibodies ([9]; of the 1,050 evaluable combination therapy patients): 2
Grade 3/4 infusion reaction at Week 2 or subsequent infusions ([10]; human, in vivo): Less than 1%
incidence of any grade infusion reactions, Week 2 infusion ([10]; human, in vivo): 2%
incidence of any grade infusion reactions, first (16 mg/kg, Week 1) infusion ([10]; human, in vivo): 37%
incidence of any grade infusion reactions, subsequent infusions (cumulative) ([10]; human, in vivo): 6%
time after completing infusion within which nearly all reactions occurred ([10]; human, in vivo): ≤ 4 h
patients who experienced an infusion reaction ([10]; in clinical trials): approximately half
time after infusion at which infusion reactions occurred ([10]; prior to the introduction of post-infusion medication): up to 48 hours
incidence of any grade infusion-related reactions ([11]; combination treatment (n=97), first 16 mg/kg dose split over two days): 42%
infusion reactions on Day 2 of Week 1 ([11]; split first dose): 4%
infusion reactions with subsequent infusions ([11]; split first dose): 8%
